According to patent publication US11346848B2, “Γ-secretase stabilizing compound screening assay” (VIB VZW, priority 2017, dated 2022):

Tests used:
γ-secretase = details: Chávez-Gutiérrez et al., 2012; Funamoto et al., 2013; read-out: Km (substrate affinity constant); cited from earlier work
[1] = test system: CC[C@H](C)[C@H](NC(=O)[C@@H](NC(=O)[C@@H](NC(=O)[C@H](C)NC(=O)[C@@H](NC(=O)[C@@H](NC(=O)[C@@H](NC(=O)CNC(=O)CNC(=O)[C@@H](NC(=O)[C@H](CCSC)NC(=O)[C@H](CC(C)C)NC(=O)CNC(=O)[C@@H](NC(=O)[C@@H](NC(=O)[C@H](C)NC(=O)CNC(=O)[C@H](CCCCN)NC(=O)[C@H](CC(N)=O)NC(=O)[C@H](CO)NC(=O)CNC(=O)[C@@H](NC(=O)[C@H](CC(=O)O)NC(=O)[C@H](CCC(=O)O)NC(=O)[C@H](C)NC(=O)[C@H](Cc1ccccc1)NC(=O)[C@H](Cc1ccccc1)NC(=O)[C@@H](NC(=O)[C@H](CC(C)C)NC(=O)[C@H](CCCCN)NC(=O)[C@H](CCC(N)=O)NC(=O)[C@H](Cc1c[nH]cn1)NC(=O)[C@H](Cc1c[nH]cn1)NC(=O)[C@@H](NC(=O)[C@H](CCC(=O)O)NC(=O)[C@H](Cc1ccc(O)cc1)NC(=O)CNC(=O)[C@H](CO)NC(=O)[C@H](CC(=O)O)NC(=O)[C@H](Cc1c[nH]cn1)NC(=O)[C@H](CCCNC(=N)N)NC(=O)[C@H](Cc1ccccc1)NC(=O)[C@H](CCC(=O)O)NC(=O)[C@H](C)NC(=O)[C@@H](N)CC(=O)O)C(C)C)C(C)C)C(C)C)[C@@H](C)CC)[C@@H](C)CC)C(C)C)C(C)C)C(C)C)[C@@H](C)CC)[C@@H](C)O)C(C)C)C(=O)O; assay: purified protein, by the assay type
[2] = test system: CC[C@H](C)[C@H](NC(=O)[C@H](C)NC(=O)CNC(=O)[C@H](CCCCN)NC(=O)[C@H](CC(N)=O)NC(=O)[C@H](CO)NC(=O)CNC(=O)[C@@H](NC(=O)[C@H](CC(=O)O)NC(=O)[C@H](CCC(=O)O)NC(=O)[C@H](C)NC(=O)[C@H](Cc1ccccc1)NC(=O)[C@H](Cc1ccccc1)NC(=O)[C@@H](NC(=O)[C@H](CC(C)C)NC(=O)[C@H](CCCCN)NC(=O)[C@H](CCC(N)=O)NC(=O)[C@H](Cc1c[nH]cn1)NC(=O)[C@H](Cc1c[nH]cn1)NC(=O)[C@@H](NC(=O)[C@H](CCC(=O)O)NC(=O)[C@H](Cc1ccc(O)cc1)NC(=O)CNC(=O)[C@H](CO)NC(=O)[C@H](CC(=O)O)NC(=O)[C@H](Cc1c[nH]cn1)NC(=O)[C@H](CCCNC(=N)N)NC(=O)[C@H](Cc1ccccc1)NC(=O)[C@H](CCC(=O)O)NC(=O)[C@H](C)NC(=O)[C@@H](N)CC(=O)O)C(C)C)C(C)C)C(C)C)C(=O)N[C@H](C(=O)NCC(=O)N[C@@H](CC(C)C)C(=O)N[C@@H](CCSC)C(=O)N[C@H](C(=O)NCC(=O)NCC(=O)N[C@H](C(=O)N[C@H](C(=O)N[C@H](C(=O)N[C@@H](C)C(=O)N[C@H](C(=O)N[C@H](C(=O)N[C@H](C(=O)N[C@H](C(=O)O)C(C)C)[C@@H](C)CC)C(C)C)[C@@H](C)O)[C@@H](C)CC)C(C)C)C(C)C)C(C)C)[C@@H](C)CC; assay: purified protein, by the assay type

Substance | Km (γ-secretase) | Km ([1]; other: 37° C., 37.0 °C) | Vmax ([1]; other: 37° C., 37.0 °C) | Km ([1]; other: 45° C., […]) | Vmax ([1]; other: 45° C., […]) | Km ([1]; other: 51° C., […]) | Vmax ([1]; other: 51° C., […]) | Km ([1]; other: summary of Table 2) | Km ([2]; other: 37° C., 37.0 °C) | Vmax ([2]; other: 37° C., 37.0 °C) | Km ([2]; other: 51° C., […]) | Vmax ([2]; other: 51° C., […]) | Km ([2]; other: summary of Table 2)
APP-C99: human Amyloid beta precursor protein C99 fragment (99 aa), natural γ-secretase substrate | 0.4 to 0.8 µM |  |  |  |  |  |  |  |  |  |  |  | 
wild type human γ-secretase (PSEN1/APH1a) (Homo sapiens) |  | 2.9 µM | 545.2 nM/h | 1.7 µM | 274.3 nM/h | 1.4 µM | 97.45 nM/h | 3 µM | 3.3 µM | 606.3 nM/h | 2.3 µM | 348.8 nM/h | 3 µM
